Data reported in paper PMC2064341 (The Journal of Cell Biology, 2006).

Biological target: T1, 6-His-tagged RLIP76ΔRBD (human, UniProt Q15311 1-392)
T1 sequence: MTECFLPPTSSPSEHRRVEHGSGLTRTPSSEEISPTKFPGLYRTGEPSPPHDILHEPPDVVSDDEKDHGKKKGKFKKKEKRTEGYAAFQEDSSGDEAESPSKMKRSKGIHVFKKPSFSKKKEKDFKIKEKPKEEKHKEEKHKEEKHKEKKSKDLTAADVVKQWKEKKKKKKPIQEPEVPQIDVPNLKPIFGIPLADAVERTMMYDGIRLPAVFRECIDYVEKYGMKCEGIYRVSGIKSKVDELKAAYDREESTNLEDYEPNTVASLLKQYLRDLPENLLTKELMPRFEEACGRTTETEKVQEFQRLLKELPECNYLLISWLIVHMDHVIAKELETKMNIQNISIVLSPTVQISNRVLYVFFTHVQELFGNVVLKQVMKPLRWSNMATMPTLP
Test: pull-down

binding result: binds
B1: GST–R-Ras(wt) (natural protein, human, UniProt P10301 1-218, looked up)
chain: MSSGAASGTGRGRPRGGGPGPGDPPPSETHKLVVVGGGGVGKSALTIQFIQSYFVSDYDPTIEDSYTKICSVDGIPARLDILDTAGQEEFGAMREQYMRAGHGFLLVFAINDRQSFNEVGKLFTQILRVKDRDDFPVVLVGNKADLESQRQVPRSEASAFGASHHVAYFEASAKLRLNVDEAFEQLVRAVRKYQEQELPPSPPSAPRKKGGGCPCVLL
